Series [1] has as its target T1, SARS-CoV spike extracellular domain (CoV-S) (SARS-CoV, UniProt P59594 14-1190). Kind of series: flow cytometry. On the technique in general: In flow cytometry, cells or beads pass a laser one at a time.
The target in the next series is SARS-CoV-2 spike RBD (SARS-CoV-2, UniProt P0DTC2 319-591). Kind of series: flow cytometry.
Series [2] addresses T2, ACE2 extracellular domain (human, UniProt Q9BYF1 19-615). Kind of series: flow cytometry.
Series [3] concerns the target T1, SARS-CoV spike extracellular domain …. Kind of series: pull-down.
A further series deals with Nek7 (human, UniProt Q8TDX7 1-302). Kind of series: pull-down.
Series [4] concerns the target T2, ACE2 extracellular domain. Kind of series: pull-down.

This note sets out measurements from PMC8250900.

T2 sequence (Q9BYF1 19-615): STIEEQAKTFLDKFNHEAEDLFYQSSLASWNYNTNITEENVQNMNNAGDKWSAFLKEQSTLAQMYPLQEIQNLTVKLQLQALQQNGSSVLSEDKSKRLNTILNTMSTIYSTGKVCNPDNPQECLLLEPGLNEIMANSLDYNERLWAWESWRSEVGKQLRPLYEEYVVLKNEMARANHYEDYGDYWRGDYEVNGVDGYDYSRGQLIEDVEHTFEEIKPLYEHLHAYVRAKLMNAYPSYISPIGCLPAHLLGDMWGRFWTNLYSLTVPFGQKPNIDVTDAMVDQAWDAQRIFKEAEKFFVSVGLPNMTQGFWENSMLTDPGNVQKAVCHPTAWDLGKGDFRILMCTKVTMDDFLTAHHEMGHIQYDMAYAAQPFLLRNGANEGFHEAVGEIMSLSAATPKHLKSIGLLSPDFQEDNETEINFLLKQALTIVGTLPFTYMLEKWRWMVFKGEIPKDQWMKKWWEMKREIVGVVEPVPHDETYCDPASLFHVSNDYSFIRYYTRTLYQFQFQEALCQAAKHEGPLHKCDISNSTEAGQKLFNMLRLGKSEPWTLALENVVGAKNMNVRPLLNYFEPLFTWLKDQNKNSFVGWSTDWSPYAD
Sequence of Nek7 (Q8TDX7 whole entry, the tested form may be a part): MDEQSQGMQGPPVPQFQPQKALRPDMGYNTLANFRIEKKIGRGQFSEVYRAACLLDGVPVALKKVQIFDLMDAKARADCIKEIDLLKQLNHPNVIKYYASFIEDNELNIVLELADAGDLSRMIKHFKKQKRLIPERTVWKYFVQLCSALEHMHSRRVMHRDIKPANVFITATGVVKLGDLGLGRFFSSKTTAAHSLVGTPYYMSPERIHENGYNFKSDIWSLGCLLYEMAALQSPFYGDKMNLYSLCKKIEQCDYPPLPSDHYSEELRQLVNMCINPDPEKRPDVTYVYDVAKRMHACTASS

B1: SP5 (ssDNA)
DNA: GGGAGAGGAGGGAGATAGATATCAACCATGGTAGGTATTGCTTGGTAGGGATAGTGGGCTTGATGTTTCGTGGATGCCACAGGAC
Regarding B1, the binding result (in series [1]; with SARS-CoV-2 spike RBD; in series [2]) was “no binding” in each case.

B2: SP7 (ssDNA)
DNA: GGGAGAGGAGGGAGATAGATATCAAAGGAGGGTAGGTAGTGCTTGGTAGGGAAACTCCGCCGATTTTTCGTGGATGCCACAGGAC
For the molecule B2, the binding result (in series [1]; with SARS-CoV-2 spike RBD; in series [2]) was “no binding” each time.

B3: RBD4 (ssDNA)
DNA: GGGAGAGGAGGGAGATAGATATCAATGGGTGGGAGGGAGGGGGGCTTTATTCCGGTGTTTTTTCGTTTCGTGGATGCCACAGGAC
With B3, the binding result with SARS-CoV-2 spike RBD is given as “binds”.

B4: RBD2 (ssDNA)
DNA: GGGAGAGGAGGGAGATAGATATCAATACAGTTGGTTGTAGGTTTTTGTTAGGTTAGTTTAGGGTTTTTCGTGGATGCCACAGGAC
Regarding B4, the binding result in the series with SARS-CoV-2 spike RBD is recorded as “binds”.

B5: SP6 (ssDNA)
DNA: GGGAGAGGAGGGAGATAGATATCAACCCATGGTAGGTATTGCTTGGTAGGGATAGTGGGCTTGATGTTTCGTGGATGCCACAGGAC
For B5, the binding result (in series [1]; with SARS-CoV-2 spike RBD; in series [2]) was “no binding” in each case.

B6: SP6 biotin (ssDNA)
DNA: B5 DNA
Take B6: the binding result (in series [3]; with Nek7; in series [4]) was “no binding” throughout.

B7: RBD3 (ssDNA)
DNA: GGGAGAGGAGGGAGATAGATATCAATGGGTGTTTTGGTTGTAGGGTTTAGGTTTAGGGTACTCTTTTTCGTGGATGCCACAGGAC
As to B7, the binding result with SARS-CoV-2 spike RBD is listed as “binds”.

B8: RBD1 (ssDNA)
DNA: GGGAGAGGAGGGAGATAGATATCAAGTTAGGTTCTGGATTAGGTTAGGGTTGTGTTGTTGTTAGGTTTCGTGGATGCCACAGGAC
Take B8: the binding result in the series with SARS-CoV-2 spike RBD is on record as “binds”.
